Test results as given in US20210246166A1 (Bayer, published 2021).
Bridge positions count the residues as written; N and C are the ends. Square brackets hold non-standard residues; d marks the D form. Ends that are not written are not given here. * marks the point of attachment. Oic = O=C(O)[C@@H]1C[C@@H]2CCCC[C@@H]2N1; Butanoyl(3,3-Me2) = CC(C)(C)CC(=O)*; NMeI = CC[C@H](C)[C@H](NC)C(=O)O; aIle = CC[C@@H](C)[C@H](N)C(=O)O; tBuAla = CC(C)(C)C[C@H](N)C(=O)O; Abu(4-CN) = N#CCC[C@H](N)C(=O)O; Pen = CC(C)(S)[C@H](N)C(=O)O; Phg = N[C@H](C(=O)O)c1ccccc1; Tranexamic = tranexamic acid; NMeC = CN[C@@H](CS)C(=O)O; PEG2 = NCCOCCOCCC(=O)O; Sar = CNCC(=O)O

T1: recombinant human MASP1 active protease (amino acids 297-699, C-terminal His Tag) (human, UniProt P48740 297-699)
T1 sequence: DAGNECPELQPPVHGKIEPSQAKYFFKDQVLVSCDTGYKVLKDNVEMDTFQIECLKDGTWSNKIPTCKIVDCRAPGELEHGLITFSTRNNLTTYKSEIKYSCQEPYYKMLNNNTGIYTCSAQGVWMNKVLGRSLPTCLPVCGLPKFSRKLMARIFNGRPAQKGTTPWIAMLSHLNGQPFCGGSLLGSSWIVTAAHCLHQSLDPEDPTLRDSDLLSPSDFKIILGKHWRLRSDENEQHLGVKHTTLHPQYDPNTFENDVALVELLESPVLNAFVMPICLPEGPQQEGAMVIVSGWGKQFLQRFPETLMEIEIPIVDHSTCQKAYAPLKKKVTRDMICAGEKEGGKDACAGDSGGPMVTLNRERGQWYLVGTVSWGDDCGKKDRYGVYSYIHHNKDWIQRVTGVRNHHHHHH


Key:
[1] = target: T1, recombinant human MASP1 active protease …; experiment: cell-based or functional assay
[2] = target: recombinant human MASP2 active protease (amino acids 297-686, C-terminal His Tag) (human, UniProt O00187 297-686); experiment: cell-based or functional assay
Sequence of recombinant human MASP2 active protease (amino acids 297-686, C-terminal His Tag) (O00187 other isoform, or with tags, fused parts or gaps limits assumed): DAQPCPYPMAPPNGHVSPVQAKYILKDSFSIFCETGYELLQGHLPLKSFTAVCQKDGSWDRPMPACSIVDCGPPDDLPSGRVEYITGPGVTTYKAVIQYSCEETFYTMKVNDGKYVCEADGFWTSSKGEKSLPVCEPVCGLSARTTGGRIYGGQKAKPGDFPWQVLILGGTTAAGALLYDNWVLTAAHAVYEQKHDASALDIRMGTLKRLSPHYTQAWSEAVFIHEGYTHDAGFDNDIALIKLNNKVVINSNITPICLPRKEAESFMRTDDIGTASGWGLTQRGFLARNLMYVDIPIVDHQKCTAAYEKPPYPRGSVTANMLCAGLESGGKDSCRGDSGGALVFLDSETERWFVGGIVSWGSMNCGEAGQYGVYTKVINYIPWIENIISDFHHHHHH

human MASP1 IC50 [1] | human MASP2 IC50 [2] | Binder
23 nM | 72 nM | [Sar]ICSRSLP[(1R,3S,5R)‑2‑Azabicyclo(3.1.0)hexane‑3‑carboxylic acid]ICIPD-OH (disulfide 3-11) [Example 324: ((N-Me)G)-IC+SRSLP-((1R,3S,5R)-2-Azabicyclo[3.1.0]hexane-3-carboxylic acid)-IC+IPD-OH]
25 nM | 180 nM | [tBuAla]ICSRSLP[Oic]I[Pen]IP-OH (disulfide 3-11; N-terminus assumed; SMILES CC[C@H](C)[C@H](NC(=O)[C@@H](N)CC(C)(C)C)C(=O)N[C@H]1CSSC(C)(C)[C@@H](C(=O)N[C@H](C(=O)N2CCC[C@H]2C(=O)O)[C@@H](C)CC)NC(=O)[C@H]([C@@H](C)CC)NC(=O)[C@@H]2C[C@@H]3CCCC[C@@H]3N2C(=O)[C@@H]2CCCN2C(=O)[C@H](CC(C)C)NC(=O)[C@H](CO)NC(=O)[C@H](CCCNC(=N)N)NC(=O)[C@H](CO)NC1=O) [Example 335: ((tBu)A)-IC+SRSLP-(Oic)-I-(Pen)+IP-OH]
24 nM | 260 nM | [Sar]ICSRSLPPICI[Sar]D-OH (disulfide 3-11; N-terminus assumed; SMILES CC[C@H](C)[C@H](NC(=O)CNC)C(=O)N[C@H]1CSSC[C@@H](C(=O)N[C@H](C(=O)N(C)CC(=O)N[C@@H](CC(=O)O)C(=O)O)[C@@H](C)CC)NC(=O)[C@H]([C@@H](C)CC)NC(=O)[C@@H]2CCCN2C(=O)[C@@H]2CCCN2C(=O)[C@H](CC(C)C)NC(=O)[C@H](CO)NC(=O)[C@H](CCCNC(=N)N)NC(=O)[C@H](CO)NC1=O) [Example 329: ((N-Me)G)-IC+SRSLPPIC+I-((N-Me)G)-D-OH]
25 nM | 8.4 nM | {Butanoyl(3,3-Me2)}-ICSRS[tBuAla]PPI[NMeC]I-NH2 (disulfide 2-10; SMILES CC[C@H](C)[C@H](NC(=O)[C@@H]1CSSC[C@H](NC(=O)[C@@H](NC(=O)CC(C)(C)C)[C@@H](C)CC)C(=O)N[C@@H](CO)C(=O)N[C@@H](CCCNC(=N)N)C(=O)N[C@@H](CO)C(=O)N[C@@H](CC(C)(C)C)C(=O)N2CCC[C@H]2C(=O)N2CCC[C@H]2C(=O)N[C@@H]([C@@H](C)CC)C(=O)N1C)C(N)=O) [Example 333: (tert-Butylacetic acid)-IC+SRS-((tBu)A)-PPI-((N-Me)C)+I-NH2]
6.96 nM | 560 nM | GICSRSLP[Oic]ICIPD-OH (disulfide 3-11; N-terminus assumed; SMILES CC[C@H](C)[C@H](NC(=O)CN)C(=O)N[C@H]1CSSC[C@@H](C(=O)N[C@H](C(=O)N2CCC[C@H]2C(=O)N[C@@H](CC(=O)O)C(=O)O)[C@@H](C)CC)NC(=O)[C@H]([C@@H](C)CC)NC(=O)[C@@H]2C[C@@H]3CCCC[C@@H]3N2C(=O)[C@@H]2CCCN2C(=O)[C@H](CC(C)C)NC(=O)[C@H](CO)NC(=O)[C@H](CCCNC(=N)N)NC(=O)[C@H](CO)NC1=O) [Example 323: GIC+SRSLP-(Oic)-IC+IPD-OH]
22 nM | 610 nM | [Sar]ICSRSLPPICIPD-OH (disulfide 3-11; also: HCl salt) [Example 318: ((N-Me)G)-IC+SRSLPPIC+IPD-OH (HCl- Salt)]
22 nM | 150 nM | [tBuAla]GICSRSLP[Oic]I[Pen]IP-NH2 (disulfide 4-12; N-terminus assumed; SMILES CC[C@H](C)[C@H](NC(=O)CNC(=O)[C@@H](N)CC(C)(C)C)C(=O)N[C@H]1CSSC(C)(C)[C@@H](C(=O)N[C@H](C(=O)N2CCC[C@H]2C(N)=O)[C@@H](C)CC)NC(=O)[C@H]([C@@H](C)CC)NC(=O)[C@@H]2C[C@@H]3CCCC[C@@H]3N2C(=O)[C@@H]2CCCN2C(=O)[C@H](CC(C)C)NC(=O)[C@H](CO)NC(=O)[C@H](CCCNC(=N)N)NC(=O)[C@H](CO)NC1=O) [Example 322: ((tBu)A)-GIC+SRSLP-(Oic)-I-(Pen)+IP-NH2]
22 nM | 190 nM | [PEG2]AICSRS[tBuAla]PPI[Pen]IPD-NH2 (disulfide 4-12; N-terminus assumed; SMILES CC[C@H](C)[C@H](NC(=O)[C@H](C)NC(=O)CCOCCOCCN)C(=O)N[C@H]1CSSC(C)(C)[C@@H](C(=O)N[C@H](C(=O)N2CCC[C@H]2C(=O)N[C@@H](CC(=O)O)C(N)=O)[C@@H](C)CC)NC(=O)[C@H]([C@@H](C)CC)NC(=O)[C@@H]2CCCN2C(=O)[C@@H]2CCCN2C(=O)[C@H](CC(C)(C)C)NC(=O)[C@H](CO)NC(=O)[C@H](CCCNC(=N)N)NC(=O)[C@H](CO)NC1=O) [Example 320: (PEG1(10 atoms))-AIC+SRS-((tBu)A)-PPI-(Pen)+IPD-NH2]
22 nM | 1800 nM | [Sar]ICSRS[Abu(4-CN)]PPI[Pen]IPD-NH2 (disulfide 3-11; N-terminus assumed; SMILES CC[C@H](C)[C@H](NC(=O)CNC)C(=O)N[C@H]1CSSC(C)(C)[C@@H](C(=O)N[C@H](C(=O)N2CCC[C@H]2C(=O)N[C@@H](CC(=O)O)C(N)=O)[C@@H](C)CC)NC(=O)[C@H]([C@@H](C)CC)NC(=O)[C@@H]2CCCN2C(=O)[C@@H]2CCCN2C(=O)[C@H](CCC#N)NC(=O)[C@H](CO)NC(=O)[C@H](CCCNC(=N)N)NC(=O)[C@H](CO)NC1=O) [Example 321: ((N-Me)G)-IC+SRS-(Cnba)-PPI-(Pen)+IPD-NH2]
25 nM | 2000 nM | AICSRS[(2S)‑2‑Amino‑4,4,4‑trifluorobutanoic acid]PPI[NMeC]IPD-NH2 (disulfide 3-11) [Example 337: AIC+SRS-((2S)-2-Amino-4,4,4-trifluorobutanoic acid)-PPI-((N-Me)C)+IPD-NH2]
23 nM | 710 nM | AICSRSLP[3,3‑dimethyl‑1,3‑azasilolidine‑5‑carboxylic acid]ICIPD-NH2 (disulfide 3-11) [Example 326: AIC+SRSLP-(3,3-dimethyl-1,3-azasilolidine-5-carboxylic acid)-IC+IPD-NH2]
26 nM | 360 nM | [(2S,3S)‑2‑((3R)-3-Amino-2-oxopyrrolidin-1-yl)‑3‑methylpentanoic acid]CSRSLPPICIAD-OH (disulfide 2-10)
23 nM | 450 nM | [Sar]ICSRSLPPIC[Phg]PD-OH (disulfide 3-11; N-terminus assumed; SMILES CC[C@H](C)[C@H](NC(=O)CNC)C(=O)N[C@H]1CSSC[C@@H](C(=O)N[C@H](C(=O)N2CCC[C@H]2C(=O)N[C@@H](CC(=O)O)C(=O)O)c2ccccc2)NC(=O)[C@H]([C@@H](C)CC)NC(=O)[C@@H]2CCCN2C(=O)[C@@H]2CCCN2C(=O)[C@H](CC(C)C)NC(=O)[C@H](CO)NC(=O)[C@H](CCCNC(=N)N)NC(=O)[C@H](CO)NC1=O) [Example 325: ((N-Me)G)-IC+SRSLPPIC+(Phg)-PD-OH]
26 nM | 640 nM | [Sar]ICSRSLPPICIPE-OH (disulfide 3-11; N-terminus assumed; SMILES CC[C@H](C)[C@H](NC(=O)CNC)C(=O)N[C@H]1CSSC[C@@H](C(=O)N[C@H](C(=O)N2CCC[C@H]2C(=O)N[C@@H](CCC(=O)O)C(=O)O)[C@@H](C)CC)NC(=O)[C@H]([C@@H](C)CC)NC(=O)[C@@H]2CCCN2C(=O)[C@@H]2CCCN2C(=O)[C@H](CC(C)C)NC(=O)[C@H](CO)NC(=O)[C@H](CCCNC(=N)N)NC(=O)[C@H](CO)NC1=O) [Example 339: ((N-Me)G)-IC+SRSLPPIC+IPE-OH]
25 nM | 690 nM | ICSRSLP[Oic]I[Pen]IP-NH2 (disulfide 2-10; N-terminus assumed; SMILES CC[C@H](C)[C@H](N)C(=O)N[C@H]1CSSC(C)(C)[C@@H](C(=O)N[C@H](C(=O)N2CCC[C@H]2C(N)=O)[C@@H](C)CC)NC(=O)[C@H]([C@@H](C)CC)NC(=O)[C@@H]2C[C@@H]3CCCC[C@@H]3N2C(=O)[C@@H]2CCCN2C(=O)[C@H](CC(C)C)NC(=O)[C@H](CO)NC(=O)[C@H](CCCNC(=N)N)NC(=O)[C@H](CO)NC1=O) [Example 336: IC+SRSLP-(Oic)-I-(Pen)+IP-NH2]
26 nM | 300 nM | [Sar][NMeI]CSRSLPPICIPD-NH2 (disulfide 3-11; N-terminus assumed; SMILES CC[C@H](C)[C@@H]1NC(=O)[C@@H]2CCCN2C(=O)[C@@H]2CCCN2C(=O)[C@H](CC(C)C)NC(=O)[C@H](CO)NC(=O)[C@H](CCCNC(=N)N)NC(=O)[C@H](CO)NC(=O)[C@@H](NC(=O)[C@H]([C@@H](C)CC)N(C)C(=O)CNC)CSSC[C@@H](C(=O)N[C@H](C(=O)N2CCC[C@H]2C(=O)N[C@@H](CC(=O)O)C(N)=O)[C@@H](C)CC)NC1=O) [Example 340: ((N-Me)G)-((N-Me)I)-C+SRSLPPIC+IPD-NH2]
22 nM | 18 nM | [Tranexamic]ICSRS[tBuAla]PPI[NMeC]IPD-NH2 (disulfide 3-11) [Example 319: (Tranexamic)-IC+SRS-((tBu)A)-PPI-((N-Me)C)+IPD-NH2]
24 nM | 610 nM | A[aIle]CSRSLPPICIPD-NH2 (disulfide 3-11; N-terminus assumed; SMILES CC[C@@H](C)[C@H](NC(=O)[C@H](C)N)C(=O)N[C@H]1CSSC[C@@H](C(=O)N[C@H](C(=O)N2CCC[C@H]2C(=O)N[C@@H](CC(=O)O)C(N)=O)[C@@H](C)CC)NC(=O)[C@H]([C@@H](C)CC)NC(=O)[C@@H]2CCCN2C(=O)[C@@H]2CCCN2C(=O)[C@H](CC(C)C)NC(=O)[C@H](CO)NC(=O)[C@H](CCCNC(=N)N)NC(=O)[C@H](CO)NC1=O) [Example 331: A-(allo-I)C+SRSLPPIC+IPD-NH2]
